Results as given in publication PMC7058014.

Target: T1, GST-ATML1(30-134) (Arabidopsis thaliana) (UniProt Q8RWU4)
T1 sequence: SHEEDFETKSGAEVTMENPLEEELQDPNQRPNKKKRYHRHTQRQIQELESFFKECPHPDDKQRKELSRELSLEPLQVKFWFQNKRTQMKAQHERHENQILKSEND
Test: EMSA
Conditions: 15 mM Tris pH 7.5, 50 mM NaCl, 0.1 mM DTT, 5% glycerol, 0.1 mM MgCl2, 50 ng/ul carrier DNA, room temperature 30 min; 6% gel in 0.5x TBE at 4 C

Sequence	binding
CCTGATAATTTGATATCATCGGTTGTAAAAACGAATATGTAATGTTACATTACTAATGTATAAAGTATAAACAAATATTATTATCTTTTGAAAAAAGTTTTTCATAGAAACAATTCAAATTTAATAAACCAACCTCCTTTTTGGTATGGGGTTGTTGGTCTAATTTAATGCTTGTCTCTTGCTTGCCTCTCTTCTTCAACCATCTTCGTATTTATATCTTCTTCTTCACTATGCATACTCATAAACTTTGCTACTGGCCGCAT (double strand) [MIR171B-F4]	binds
GGGTTCATAACTTGCTTGAGGTTTTGTAAAAAGCAGAGAAAGAGAGAGAGAGGGGCCTAGAAAGAAAGAAAGAAAAGCAGTAAGAGACTATTAAATGTTGCAGGCAGGTCCAGCCAGTGTCCCCTCTCTTCTGCGAGATTCCCTCAAAATTTATTACAAAGCATCTTCATCGATGTTCTTTTAATTCTTCCTCAAAATCTTTTCTCTTTTTTTGGTTATATATATTTGAATTTTGATTTATGAACCTCCTCAAGAAGGAAA (double strand) [MIR171A-F2]	binds
ATGTGAATGAAGCCAAGAATCAGTTAATACTAAAGCTCAAGTGTGCAATATACATCACAATACCTTTGTCCTTGTTTCAGGTCTACTTTTACATCATAGAACTTGCTCCTATAGATAATACAATGCATGGTATTGACGTAAGAACTCTTAGCTTTTCATATTAGTAGCTTATAATGTTCCTTAAATGCGACATTGATATTAAGCTACTACTCAATAACTCAATGGTAACGAATCATAAGTCTGAACTATTCGAAAACAGTAATCCTGAAAAGAAA (double strand) [MIR171A-F1]	binds
ATGTTGATTACCCATATACTTTGCTAGCGGCCGAAATGATCACTTTCATGATTTTTTTTTGCATAGGTTCATAAAACATATATTTACTTTTTTTTAAGGAAATATTAAATAAATGATAGGAACTTAACAAGAGAAGAAATAAATAGGGAGGGAGAATATTTGGAAAGTTGAGCCATATTAATTTCGAAATTCAAATGTATATTGGGAGTGGCACAACCCCACCAACATGCCTTGCTCTCTCTTACAAACCTCATAAATACTAAATTGAAAGCTCGTGGGA (double strand) [MIR171B-F3]	binds
CCTCCTCAAGAAGGAAAGACAGAGGAGGAGACAAAGAAGTATAGGTTCACATTGCATAGCCAGTTTAGTTTTGAAGGATGGATATATGAAAAAAATATGAAGAGAGAGAAGAGAGAAGAAGAGGAGGATTAAAGAGGGTGAGGCCAGCTTTTGTGCTTTGGTAGTAGATGAGGTTTAAATGCTCCATACCTTCCATTTCCTTCTCTCTTACCCTAATTTAATTCTTCCTCTCCTTTATAACTCCCCACAGACATTCTCACT (double strand) [MIR171A-F3]	binds
